{
  "source": "patent US20120040474A1",
  "about": "(published 2012)",
  "experiment_in_all_cases": "SPR, denatured RNase B",
  "key": {"[1]": {"biological_target": "T1, PNGase F D60A/R125A mutant (Flavobacterium meningosepticum, UniProt P21163 41-354)", "T1 sequence": "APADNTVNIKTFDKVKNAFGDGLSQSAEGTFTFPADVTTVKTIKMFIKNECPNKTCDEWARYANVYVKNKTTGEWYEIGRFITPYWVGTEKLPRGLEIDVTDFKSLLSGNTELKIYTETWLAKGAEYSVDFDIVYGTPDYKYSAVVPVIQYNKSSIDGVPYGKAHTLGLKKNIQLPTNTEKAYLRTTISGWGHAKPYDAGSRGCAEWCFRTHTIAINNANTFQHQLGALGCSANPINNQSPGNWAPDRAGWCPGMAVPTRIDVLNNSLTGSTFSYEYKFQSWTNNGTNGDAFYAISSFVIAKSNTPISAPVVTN"}, "[2]": {"biological_target": "T2, PNGase F D60A/E206K mutant (Flavobacterium meningosepticum, UniProt P21163 41-354)", "T2 sequence": "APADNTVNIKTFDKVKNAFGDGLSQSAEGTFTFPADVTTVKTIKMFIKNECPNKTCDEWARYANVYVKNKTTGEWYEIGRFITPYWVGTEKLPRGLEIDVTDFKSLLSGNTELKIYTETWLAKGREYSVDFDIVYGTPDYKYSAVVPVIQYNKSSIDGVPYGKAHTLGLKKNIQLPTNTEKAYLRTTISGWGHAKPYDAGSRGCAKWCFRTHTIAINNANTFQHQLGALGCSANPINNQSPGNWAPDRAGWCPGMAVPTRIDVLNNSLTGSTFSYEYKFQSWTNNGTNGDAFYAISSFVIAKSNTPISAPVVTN"}, "[3]": {"biological_target": "T3, PNGase F D60A/E206Q mutant (Flavobacterium meningosepticum, UniProt P21163 41-354)", "T3 sequence": "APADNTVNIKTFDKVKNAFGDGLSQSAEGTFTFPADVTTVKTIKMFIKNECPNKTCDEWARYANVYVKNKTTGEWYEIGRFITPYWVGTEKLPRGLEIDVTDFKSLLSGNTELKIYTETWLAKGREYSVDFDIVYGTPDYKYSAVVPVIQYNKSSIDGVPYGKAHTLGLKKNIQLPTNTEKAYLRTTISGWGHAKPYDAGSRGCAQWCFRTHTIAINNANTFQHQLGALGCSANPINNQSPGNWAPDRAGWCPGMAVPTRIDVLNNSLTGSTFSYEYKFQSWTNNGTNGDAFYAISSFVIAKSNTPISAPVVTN"}, "PNGase F E206A mutant": {"biological_target": "T4, PNGase F E206A mutant (Flavobacterium meningosepticum, UniProt P21163 41-354)", "T4 sequence": "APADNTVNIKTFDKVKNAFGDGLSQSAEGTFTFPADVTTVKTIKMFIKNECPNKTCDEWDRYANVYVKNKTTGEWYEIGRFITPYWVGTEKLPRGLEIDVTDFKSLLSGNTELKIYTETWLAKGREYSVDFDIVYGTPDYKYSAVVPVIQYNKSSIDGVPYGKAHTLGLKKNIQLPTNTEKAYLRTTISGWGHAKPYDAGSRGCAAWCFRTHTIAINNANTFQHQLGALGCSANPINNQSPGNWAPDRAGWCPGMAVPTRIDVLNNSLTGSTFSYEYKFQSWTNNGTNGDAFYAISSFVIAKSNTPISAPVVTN"}, "[4]": {"biological_target": "T5, PNGase F D60A/D57A mutant (Flavobacterium meningosepticum, UniProt P21163 41-354)", "T5 sequence": "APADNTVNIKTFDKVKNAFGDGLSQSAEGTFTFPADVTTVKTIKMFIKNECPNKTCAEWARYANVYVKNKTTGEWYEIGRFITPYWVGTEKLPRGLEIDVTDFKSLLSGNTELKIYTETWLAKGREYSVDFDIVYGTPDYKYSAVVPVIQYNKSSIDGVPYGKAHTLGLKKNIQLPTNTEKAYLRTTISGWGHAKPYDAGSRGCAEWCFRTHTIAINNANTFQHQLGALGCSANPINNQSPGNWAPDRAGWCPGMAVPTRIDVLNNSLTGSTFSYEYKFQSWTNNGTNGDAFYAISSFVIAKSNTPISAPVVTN"}, "[5]": {"biological_target": "T6, PNGase F D60A/E206A mutant (Flavobacterium meningosepticum, UniProt P21163 41-354)", "T6 sequence": "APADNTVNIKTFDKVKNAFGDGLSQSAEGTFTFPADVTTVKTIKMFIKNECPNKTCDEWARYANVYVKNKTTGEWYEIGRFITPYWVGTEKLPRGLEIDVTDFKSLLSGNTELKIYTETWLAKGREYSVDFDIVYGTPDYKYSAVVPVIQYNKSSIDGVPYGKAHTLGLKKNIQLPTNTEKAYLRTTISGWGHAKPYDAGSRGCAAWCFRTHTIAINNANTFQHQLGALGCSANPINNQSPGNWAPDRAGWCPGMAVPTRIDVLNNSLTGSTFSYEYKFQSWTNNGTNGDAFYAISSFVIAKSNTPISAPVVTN"}, "PNGase F D60A mutant": {"biological_target": "T7, PNGase F D60A mutant (Flavobacterium meningosepticum, UniProt P21163 41-354)", "T7 sequence": "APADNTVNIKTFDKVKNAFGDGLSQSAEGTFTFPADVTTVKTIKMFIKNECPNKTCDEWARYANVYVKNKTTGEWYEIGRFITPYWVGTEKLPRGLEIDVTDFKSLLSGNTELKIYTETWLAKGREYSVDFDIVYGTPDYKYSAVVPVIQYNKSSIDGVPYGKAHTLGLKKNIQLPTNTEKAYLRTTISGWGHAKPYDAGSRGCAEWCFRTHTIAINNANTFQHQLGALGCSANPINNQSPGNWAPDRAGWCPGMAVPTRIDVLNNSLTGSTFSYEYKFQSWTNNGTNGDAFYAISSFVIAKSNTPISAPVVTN"}, "PNGase F D60N mutant": {"biological_target": "T8, PNGase F D60N mutant (Flavobacterium meningosepticum, UniProt P21163 41-354)", "T8 sequence": "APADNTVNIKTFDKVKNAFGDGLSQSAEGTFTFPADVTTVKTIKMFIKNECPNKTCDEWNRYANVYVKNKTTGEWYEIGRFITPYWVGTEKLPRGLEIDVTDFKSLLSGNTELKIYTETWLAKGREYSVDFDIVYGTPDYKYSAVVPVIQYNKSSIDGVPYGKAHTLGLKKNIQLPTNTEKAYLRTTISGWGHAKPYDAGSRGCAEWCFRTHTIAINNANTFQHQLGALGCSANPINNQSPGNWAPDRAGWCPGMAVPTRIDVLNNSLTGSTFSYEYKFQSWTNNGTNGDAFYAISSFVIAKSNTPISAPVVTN"}, "[6]": {"biological_target": "T9, PNGase F D60A/E206R mutant (Flavobacterium meningosepticum, UniProt P21163 41-354)", "T9 sequence": "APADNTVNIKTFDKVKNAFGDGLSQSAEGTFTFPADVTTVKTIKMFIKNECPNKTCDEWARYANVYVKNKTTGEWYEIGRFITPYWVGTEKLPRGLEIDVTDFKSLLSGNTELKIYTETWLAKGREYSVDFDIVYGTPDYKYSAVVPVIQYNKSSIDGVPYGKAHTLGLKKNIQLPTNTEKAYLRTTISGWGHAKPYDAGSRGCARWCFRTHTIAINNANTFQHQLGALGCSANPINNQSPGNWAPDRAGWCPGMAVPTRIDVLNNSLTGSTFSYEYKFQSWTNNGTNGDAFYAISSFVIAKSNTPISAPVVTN"}},
  "data": [
    {"binder": "denatured glycoprotein RNase B (enzyme, a single N-glycosylation site predominantly occupied by high mannose oligosaccharides; protein denatured, Recognition by the PNGase F mutants and by Con A goes through the N-linked glycan on the protein; also called denatured RNase B; dRNAse B) KETAAAKFERQHMDSSTSAASSSNYCNQMMKSRNLTKDRCKPVNTFVHESLADVQAVCSQKNVACKNGQTNCYQSYSTMSITDCRETGSSKYPNCAYKTTQANKHIIVACEGNPYVPVHFDASV", "values": [
      {"measurement": "Kd", "setting": "[1]", "value": 18, "unit": "µM"},
      {"measurement": "Kd", "setting": "[2]", "value": 18, "unit": "µM"},
      {"measurement": "Kd", "setting": "[3]", "value": 18, "unit": "µM"},
      {"measurement": "Kd", "setting": "PNGase F E206A mutant", "value": 11, "unit": "µM"},
      {"measurement": "Kd", "setting": "[4]", "value": 7, "unit": "µM"},
      {"measurement": "Kd", "setting": "[5]", "value": 20, "unit": "µM"},
      {"measurement": "Kd", "setting": "PNGase F D60A mutant", "value": 11, "unit": "µM"},
      {"measurement": "Kd", "setting": "PNGase F D60N mutant", "value": 21, "unit": "µM"},
      {"measurement": "Kd", "setting": "[6]", "value": 27, "unit": "µM"}
    ]}
  ]
}
